Residue numbers refer to the chain shown, from its start. Numbered stars: 1 amine (or outer) side, 2 acyl side, 3 side chain; on linkers, the order of the positions; unused ones are H or OH. Square brackets hold non-standard residues; d marks the D form. Side chains are listed from the residue outwards. Ends that are not written are not given here. * marks the point of attachment. C20 diacid = O=C(O)CCCCCCCCCCCCCCCCCCC(=O)*; C18 diacid = O=C(O)CCCCCCCCCCCCCCCCC(=O)*; αMePhe(2-F) = C[C@](N)(Cc1ccccc1F)C(=O)O; γGlu = O=C(O)[C@H](CCC(=O)[*:2])N[*:1]; αMeL = CC(C)C[C@](C)(N)C(=O)O; αMeK = C[C@](N)(CCCCN)C(=O)O; αMeP = C[C@@]1(C(=O)O)CCCN1; AEEA = NCCOCCOCC(=O)O; Aib = CC(C)(N)C(=O)O
B1: Peptide 21 (peptide)
peptide: Y[Aib]EGTFTSDYSI[αMeL]LDEK([AEEA-AEEA-γGlu-C20 diacid])AQ[αMeK]AFIEYLLEGGPSSGAPPPS-NH2
modifications: N-terminus assumed
SMILES: CC[C@H](C)[C@H](NC(=O)[C@H](Cc1ccccc1)NC(=O)[C@H](C)NC(=O)[C@](C)(CCCCN)NC(=O)[C@H](CCC(N)=O)NC(=O)[C@H](C)NC(=O)[C@H](CCCCNC(=O)COCCOCCNC(=O)COCCOCCNC(=O)CC[C@H](NC(=O)CCCCCCCCCCCCCCCCCCC(=O)O)C(=O)O)NC(=O)[C@H](CCC(=O)O)NC(=O)[C@H](CC(=O)O)NC(=O)[C@H](CC(C)C)NC(=O)[C@](C)(CC(C)C)NC(=O)[C@@H](NC(=O)[C@H](CO)NC(=O)[C@H](Cc1ccc(O)cc1)NC(=O)[C@H](CC(=O)O)NC(=O)[C@H](CO)NC(=O)[C@@H](NC(=O)[C@H](Cc1ccccc1)NC(=O)[C@@H](NC(=O)CNC(=O)[C@H](CCC(=O)O)NC(=O)C(C)(C)NC(=O)[C@@H](N)Cc1ccc(O)cc1)[C@@H](C)O)[C@@H](C)O)[C@@H](C)CC)C(=O)N[C@@H](CCC(=O)O)C(=O)N[C@@H](Cc1ccc(O)cc1)C(=O)N[C@@H](CC(C)C)C(=O)N[C@@H](CC(C)C)C(=O)N[C@@H](CCC(=O)O)C(=O)NCC(=O)NCC(=O)N1CCC[C@H]1C(=O)N[C@@H](CO)C(=O)N[C@@H](CO)C(=O)NCC(=O)N[C@@H](C)C(=O)N1CCC[C@H]1C(=O)N1CCC[C@H]1C(=O)N1CCC[C@H]1C(=O)N[C@@H](CO)C(N)=O
B2: Peptide 22 (peptide)
peptide: Y[Aib]EGTFTSDYSI[αMeL]LDEK([AEEA-AEEA-γGlu-C20 diacid])AQ[αMeK]AFIEYLLE[Aib]GPSSGAPPPS-NH2
modifications: N-terminus assumed
SMILES: CC[C@H](C)[C@H](NC(=O)[C@H](Cc1ccccc1)NC(=O)[C@H](C)NC(=O)[C@](C)(CCCCN)NC(=O)[C@H](CCC(N)=O)NC(=O)[C@H](C)NC(=O)[C@H](CCCCNC(=O)COCCOCCNC(=O)COCCOCCNC(=O)CC[C@H](NC(=O)CCCCCCCCCCCCCCCCCCC(=O)O)C(=O)O)NC(=O)[C@H](CCC(=O)O)NC(=O)[C@H](CC(=O)O)NC(=O)[C@H](CC(C)C)NC(=O)[C@](C)(CC(C)C)NC(=O)[C@@H](NC(=O)[C@H](CO)NC(=O)[C@H](Cc1ccc(O)cc1)NC(=O)[C@H](CC(=O)O)NC(=O)[C@H](CO)NC(=O)[C@@H](NC(=O)[C@H](Cc1ccccc1)NC(=O)[C@@H](NC(=O)CNC(=O)[C@H](CCC(=O)O)NC(=O)C(C)(C)NC(=O)[C@@H](N)Cc1ccc(O)cc1)[C@@H](C)O)[C@@H](C)O)[C@@H](C)CC)C(=O)N[C@@H](CCC(=O)O)C(=O)N[C@@H](Cc1ccc(O)cc1)C(=O)N[C@@H](CC(C)C)C(=O)N[C@@H](CC(C)C)C(=O)N[C@@H](CCC(=O)O)C(=O)NC(C)(C)C(=O)NCC(=O)N1CCC[C@H]1C(=O)N[C@@H](CO)C(=O)N[C@@H](CO)C(=O)NCC(=O)N[C@@H](C)C(=O)N1CCC[C@H]1C(=O)N1CCC[C@H]1C(=O)N1CCC[C@H]1C(=O)N[C@@H](CO)C(N)=O
B3: Peptide 179 (peptide)
peptide: Y[Aib]EGT[αMePhe(2-F)]TSDHSI[αMeL]LDEK([AEEA-AEEA-γGlu-C18 diacid])AQ[Aib]HFI[dE]YLIEGGPSSG-NH2
modifications: N-terminus assumed
SMILES: CC[C@H](C)[C@H](NC(=O)[C@H](CC(C)C)NC(=O)[C@H](Cc1ccc(O)cc1)NC(=O)[C@@H](CCC(=O)O)NC(=O)[C@@H](NC(=O)[C@H](Cc1ccccc1)NC(=O)[C@H](Cc1c[nH]cn1)NC(=O)C(C)(C)NC(=O)[C@H](CCC(N)=O)NC(=O)[C@H](C)NC(=O)[C@H](CCCCNC(=O)COCCOCCNC(=O)COCCOCCNC(=O)CC[C@H](NC(=O)CCCCCCCCCCCCCCCCC(=O)O)C(=O)O)NC(=O)[C@H](CCC(=O)O)NC(=O)[C@H](CC(=O)O)NC(=O)[C@H](CC(C)C)NC(=O)[C@](C)(CC(C)C)NC(=O)[C@@H](NC(=O)[C@H](CO)NC(=O)[C@H](Cc1c[nH]cn1)NC(=O)[C@H](CC(=O)O)NC(=O)[C@H](CO)NC(=O)[C@@H](NC(=O)[C@](C)(Cc1ccccc1F)NC(=O)[C@@H](NC(=O)CNC(=O)[C@H](CCC(=O)O)NC(=O)C(C)(C)NC(=O)[C@@H](N)Cc1ccc(O)cc1)[C@@H](C)O)[C@@H](C)O)[C@@H](C)CC)[C@@H](C)CC)C(=O)N[C@@H](CCC(=O)O)C(=O)NCC(=O)NCC(=O)N1CCC[C@H]1C(=O)N[C@@H](CO)C(=O)N[C@@H](CO)C(=O)NCC(N)=O
B4: Peptide 197 (peptide)
peptide: Y[αMeP]EGTFTSDYSILLDEK([AEEA-AEEA-γGlu-C18 diacid])AQQAFIEYLIEGGPSSG-NH2
modifications: N-terminus assumed
SMILES: CC[C@H](C)[C@H](NC(=O)[C@H](CC(C)C)NC(=O)[C@H](Cc1ccc(O)cc1)NC(=O)[C@H](CCC(=O)O)NC(=O)[C@@H](NC(=O)[C@H](Cc1ccccc1)NC(=O)[C@H](C)NC(=O)[C@H](CCC(N)=O)NC(=O)[C@H](CCC(N)=O)NC(=O)[C@H](C)NC(=O)[C@H](CCCCNC(=O)COCCOCCNC(=O)COCCOCCNC(=O)CC[C@H](NC(=O)CCCCCCCCCCCCCCCCC(=O)O)C(=O)O)NC(=O)[C@H](CCC(=O)O)NC(=O)[C@H](CC(=O)O)NC(=O)[C@H](CC(C)C)NC(=O)[C@H](CC(C)C)NC(=O)[C@@H](NC(=O)[C@H](CO)NC(=O)[C@H](Cc1ccc(O)cc1)NC(=O)[C@H](CC(=O)O)NC(=O)[C@H](CO)NC(=O)[C@@H](NC(=O)[C@H](Cc1ccccc1)NC(=O)[C@@H](NC(=O)CNC(=O)[C@H](CCC(=O)O)NC(=O)[C@]1(C)CCCN1C(=O)[C@@H](N)Cc1ccc(O)cc1)[C@@H](C)O)[C@@H](C)O)[C@@H](C)CC)[C@@H](C)CC)C(=O)N[C@@H](CCC(=O)O)C(=O)NCC(=O)NCC(=O)N1CCC[C@H]1C(=O)N[C@@H](CO)C(=O)N[C@@H](CO)C(=O)NCC(N)=O
B5: Peptide 180 (peptide)
peptide: Y[Aib]EGT[αMePhe(2-F)]TSDHSI[αMeL]LDEK([AEEA-AEEA-γGlu-C18 diacid])AQ[Aib]HFI[dE]YLIEGG-NH2
modifications: N-terminus assumed
SMILES: CC[C@H](C)[C@H](NC(=O)[C@H](CC(C)C)NC(=O)[C@H](Cc1ccc(O)cc1)NC(=O)[C@@H](CCC(=O)O)NC(=O)[C@@H](NC(=O)[C@H](Cc1ccccc1)NC(=O)[C@H](Cc1c[nH]cn1)NC(=O)C(C)(C)NC(=O)[C@H](CCC(N)=O)NC(=O)[C@H](C)NC(=O)[C@H](CCCCNC(=O)COCCOCCNC(=O)COCCOCCNC(=O)CC[C@H](NC(=O)CCCCCCCCCCCCCCCCC(=O)O)C(=O)O)NC(=O)[C@H](CCC(=O)O)NC(=O)[C@H](CC(=O)O)NC(=O)[C@H](CC(C)C)NC(=O)[C@](C)(CC(C)C)NC(=O)[C@@H](NC(=O)[C@H](CO)NC(=O)[C@H](Cc1c[nH]cn1)NC(=O)[C@H](CC(=O)O)NC(=O)[C@H](CO)NC(=O)[C@@H](NC(=O)[C@](C)(Cc1ccccc1F)NC(=O)[C@@H](NC(=O)CNC(=O)[C@H](CCC(=O)O)NC(=O)C(C)(C)NC(=O)[C@@H](N)Cc1ccc(O)cc1)[C@@H](C)O)[C@@H](C)O)[C@@H](C)CC)[C@@H](C)CC)C(=O)N[C@@H](CCC(=O)O)C(=O)NCC(=O)NCC(N)=O
B6: Peptide 172 (peptide)
peptide: YXEGTXTSDHSIXLDXKAQXTFIXYLIEGGPSSGAPPPS
modifications: Aib2; αMeF(2F)6; αMeL13; Dab16; K17((2-[2-(2-Amino-ethoxy)-ethoxy]-acetyl)2-(γGlu)-CO-(CH2)18-CO2H); Aib20; D-Glu24; C-terminal NH2
B7: Peptide 203 (peptide)
peptide: B6 peptide with H10X, X16K, T21E
modifications: Aib2; αMeF(2F)6; 4Pal10; αMeL13; K17((2-[2-(2-Amino-ethoxy)-ethoxy]-acetyl)2-(γGlu)-CO-(CH2)18-CO2H); Aib20; D-Glu24; C-terminal NH2
B8: Peptide 208 (peptide)
peptide: B6 peptide with H10Y, X16E, T21E
modifications: Aib2; αMeF(2F)6; αMeL13; K17((2-[2-(2-Amino-ethoxy)-ethoxy]-acetyl)2-(γGlu)-CO-(CH2)14-CO2H); Aib20; D-Glu24; C-terminal NH2
B9: Peptide 187 (peptide)
peptide: B6 peptide with H10Q, X16E, T21E
modifications: Aib2; αMeF(2F)6; αMeL13; K17((2-[2-(2-Amino-ethoxy)-ethoxy]-acetyl)2-(γGlu)-CO-(CH2)18-CO2H); Aib20; D-Glu24; C-terminal NH2
B10: Peptide 178 (peptide)
peptide: B6 peptide with X16E, T21H
modifications: Aib2; αMeF(2F)6; αMeL13; K17((2-[2-(2-Amino-ethoxy)-ethoxy]-acetyl)2-(γGlu)-CO-(CH2)14-CO2H); Aib20; D-Glu24; C-terminal NH2
B11: Peptide 204 (peptide)
peptide: B6 peptide with H10X, X16E, T21E
modifications: Aib2; αMeF(2F)6; 4Pal10; αMeL13; K17((2-[2-(2-Amino-ethoxy)-ethoxy]-acetyl)2-(γGlu)-CO-(CH2)16-CO2H); Aib20; D-Glu24; C-terminal NH2
B12: Peptide 202 (peptide)
peptide: B6 peptide with H10X, X16K, T21E
modifications: Aib2; αMeF(2F)6; 4Pal10; αMeL13; K17((2-[2-(2-Amino-ethoxy)-ethoxy]-acetyl)-(γGlu)-(2-[2-(2-Amino-ethoxy)-ethoxy]-acetyl)-CO-(CH2)18-CO2H); Aib20; D-Glu24; C-terminal NH2
B13: Peptide 206 (peptide)
peptide: B6 peptide with H10X, X16E, T21E
modifications: Aib2; αMeF(2F)6; 4Pal10; αMeL13; K17((2-[2-(2-Amino-ethoxy)-ethoxy]-acetyl)2-CO-(CH2)18-CO2H); Aib20; D-Glu24; C-terminal NH2
B14: Peptide 183 (peptide)
peptide: B6 peptide with H10L, X16E, T21E
modifications: Aib2; αMeF(2F)6; αMeL13; K17((2-[2-(2-Amino-ethoxy)-ethoxy]-acetyl)2-(γGlu)-CO-(CH2)18-CO2H); Aib20; D-Glu24; C-terminal NH2
B15: Peptide 205 (peptide)
peptide: B6 peptide with H10X, X16E, T21E
modifications: Aib2; αMeF(2F)6; 4Pal10; αMeL13; K17((2-[2-(2-Amino-ethoxy)-ethoxy]-acetyl)2-CO-(CH2)16-CO2H); Aib20; D-Glu24; C-terminal NH2
B16: Peptide 207 (peptide)
peptide: B6 peptide with H10X, X16E, T21E
modifications: Aib2; αMeF(2F)6; 4Pal10; αMeL13; K17((2-[2-(2-Amino-ethoxy)-ethoxy]-acetyl)2-(εK)-CO-(CH2)18-CO2H); Aib20; D-Glu24; C-terminal NH2
B17: Peptide 181 (peptide)
peptide: B6 peptide with H10X, X16E, T21E
modifications: Aib2; αMeF(2F)6; 3Pal10; αMeL13; K17((2-[2-(2-Amino-ethoxy)-ethoxy]-acetyl)2-(γGlu)-CO-(CH2)18-CO2H); Aib20; D-Glu24; C-terminal NH2
B18: Peptide 189 (peptide)
peptide: B6 peptide with H10X, X16E, T21E
modifications: Aib2; αMeF(2F)6; 4Pal10; αMeL13; K17((2-[2-(2-Amino-ethoxy)-ethoxy]-acetyl)2-(γGlu)-CO-(CH2)18-CO2H); Aib20; Aib24; C-terminal NH2
B19: Peptide 176 (peptide)
peptide: B6 peptide with X16E
modifications: Aib2; αMeF(2F)6; αMeL13; K17((2-[2-(2-Amino-ethoxy)-ethoxy]-acetyl)2-(εK)-CO-(CH2)16-CO2H); Aib20; D-Glu24; C-terminal NH2
B20: Peptide 173 (peptide)
peptide: B6 peptide
modifications: Aib2; αMeF(2F)6; αMeL13; Dap16; K17((2-[2-(2-Amino-ethoxy)-ethoxy]-acetyl)2-(γGlu)-CO-(CH2)18-CO2H); Aib20; D-Glu24; C-terminal NH2
B21: Peptide 174 (peptide)
peptide: B6 peptide with X16E
modifications: Aib2; αMeF(2F)6; αMeL13; K17((2-[2-(2-Amino-ethoxy)-ethoxy]-acetyl)2-CO-(CH2)18-CO2H); Aib20; D-Glu24; C-terminal NH2
B22: Peptide 182 (peptide)
peptide: B6 peptide with H10X, X16E, T21E
modifications: Aib2; αMeF(2F)6; 4Pal10; αMeL13; K17((2-[2-(2-Amino-ethoxy)-ethoxy]-acetyl)2-(γGlu)-CO-(CH2)18-CO2H); Aib20; D-Glu24; C-terminal NH2

The binders below were run against human GLP-1 receptor (human, UniProt P43220 24-463) (assay: cell-based or functional assay).

Binder	hGLPIR cAMP EC50 ratio
B1	0.402
B2	0.29
B3	0.0169
B4	0.189
B5	0.0212
B6	0.038
B7	0.671
B8	0.587
B9	0.702
B10	0.00349
B11	0.689
B12	0.712
B13	1.42
B14	0.843
B15	1.46
B16	1.23
B17	0.718
B18	0.668
B19	0.0427
B20	0.0373
B21	0.0968
B22	0.873

Reference: patent publication US20230293638A1 (Eli Lilly, published 2023)
